Data reported in the DeepSol protein solubility set.

Assay: soluble on expression in E. coli; label from the status in PepcDB or PDB records

Sequence	soluble on expression in E. coli
MGSDKIHHHHHHDQEPPLYVNENDIFTSPTRIEATLNGLYAAIKNTGTKSLMGGKSYLVFDNRGDDVINISNNLVTLFNTYNMNVGITDAENADTWTYAYLAINKVNTFLQSLEGAREVAGENYDRYVQEAKFVRALAYYYLNNLYPTPYSVNPDAKSVPLRLTAEAGTENNNMPRSTVKQIYEHILSDLENISALDTEVNTYTGVTHATQAAANMLKMRVYMAMNEWDKAITAGELVTGYSLPEDVTLIYKAPYFSQESIFSLPMADTNIPNTQQSLAEYYYDGKIMLIDTKSGIMSKPDYSLATDKRIIAFKGEKDLLMKFTDAKTKLQWVPIFRYAETLLDLAECYANKAGGEATAKSLLKQVRGRSVDAATDPLNIDNLSGDALKEAIYNEKRLEFIGEGIRGIDIMRRGEHFIKVGENETINVGPSDEKYTWPIPQVELLLNKDINK	not soluble
MSLASRRTDLIGMIVPDARQPFFGEMAHAVEQAAAERGKMVLVGNSDYVAEREVHYLRAFLGMRVSGLILVSHALNNQAAAEIEAWDARVVLLHERPELIDDVAVVTDDIGGAQLATRHLLEHGYAYVACLGGTAETPSVGDPVSDHVEGWRRAMQEAGIPTEGKLFEAPYNRYDAYQVGLELLAGPNRPPAIFCSTDDQAIGVLRAARELRIDVPGELAVAGFDDVKEAALTDPPLTTIASDRSAMARAAVDLVLDDGLRVAGSRRERLKLFPSRLVVRRSCGCAPQETPGSEGHHHHHH	soluble
MKLTGQAIDGFLRKPDPKIRCVLVYGPDEGLVRERLEQLARTVVADPKDPFRITDLSGDDLRADPARLADEAAALAFGGGRRLVRLRQMTDQHAPRLKAFVEAPVGEALVLVQGGDLTARSALRKLFEGASAAAALPCYADEGRSLETLVRATLAEARLAAAPEVIDYLVANLGGDRGVSRSELAKLVTYCGKATSVSLDDALACVGDSAQIGLDMLTNAVAEGDSATALRALDRLGQEGMATVALLRGLTRHFTRLHLVAGLIAGGTSVDQALAALKPPVMFKLAPRFRSQVQRWSAERLAQALDLLLDAEIDAKSSGLPERALVERLLLRLARGAKTASRLEHHHHHH	not soluble
FPSQDQYLAGLLETPEQKIRAYVLFAHCFTCGKDVAAASRISRFLVQHGFAVFRFDFTGLGNSDGDFANTNFSSNTEDLVSAAYFLEQNYEAPQLLIGHSLGGAAVLAMASQLPKVKGVVTIGAPYEASHVIHNFDAHLEKIDQSGSAKVSLGSREFTIKKQFLDDLRNQTTEHIQHLNKALLVLHSPIDLTVDISDAEKIYKAAKHPKSFVSLDTADHLLSKSIDSEYVAQTISGWASRYIP	not soluble
MSLRDEFSLIRSISPANVHQPSLHVGIGDDAAIYEGAPEMEEVLCVDTMVEEIHFRRDTLTPFQIGYKSLAINISDLAAMGATPKFYLVSIAVPPQWSDREIKTLYRGMAECAAPYRMDLIGGDTVSTNAKLVVTVTAVGHVPKGTRLLRQRARPGDVVFLTGTVGQSAAGLELLNKKGLHGPFTEEEELLVLAHQQPQPQVEAGHLFARSGYRIALNDVSDGVASEANELAEASKVKLVLKANTIPLHPAMETFSKEQQLEWALFGGEDFQLIGTAAVDAFASLQQLAIQRGISLTEIGYVEAGSPVVELEEGTARSVLKKSGYNHFAKEGHHHHHH	soluble
FGLKNNPSSSRPEGLLFYEYQQAKPKQQTAHFALDQMIYEINQSFGYEIIQRAKKLAAS	not soluble
MRRAILWFVALAIASVLAQQSRPASDPQVVEAARKEGRLIIYSSTDQSSAQALLDDFRKLYPFIQIEYNDLGTQAIYDRFVSETAAGASSADLLWSSAMELQVKLASEGYALPYDSPEAKNWPANARLGNLAYSTTLEPAVVVYNKRFLKPEEVPTTREGLARLLQEPRMRGRVATWDPERSAVGFTILKADYDRFPAFQELARAFGKAQAALYSSTGAAFEKVISGEHYLAYGFFGSYALLRQRTVKDLGIAYLTDGTVAIQRVAFINKRAAHPNAAKLFLDYLLSLRGQNLMAYTALIFARRETVVGEATPQALYKAVGGKDKVYAIPVSTEILKNLDPAERMRFLTFWRQAVRGQ	soluble
MTALTEGAKLFEKEIPYITELEGDVEGMKFIIKGEGTGDATTGTIKAKYICTTGDLPVPWATILSSLSYGVFCFAKYPRHIADFFKSTQPDGYSQDRIISFDNDGQYDVKAKVTYENGTLYNRVTVKGTGFKSNGNILGMRVLYHSPPHAVYILPDRKNGGMKIEYNKAFDVMGGGHQMARHAQFNKPLGAWEEDYPLYHHLTVWTSFGKDPDDDETDHLTIVEVIKAVDLETYR	soluble
MAAPVDLELKKAFAELQAKMVDTQQKVKLADLQIEQLSRVKKHANLTHGEITSLPESTRMFEGAGRMFILQSKGEISNQLLEKQKTADDKIKELEQKKTYLERSVKDAEDNIREMLMSRRAQ	not soluble
MKCPFCNPIKENILYEDDTIRILLDNYPANPGHLLIVPRRHVTKLEELSEGEKASLLRGIEIAIEALKKTLNPDGFNVGINIGKAAGQTVEHLHIHVIPRFNNDCKYPKGGIRKAVLDVKDENLEDEERWTKNRLPREKVEELRRALHGG	soluble
MGSDKIHHHHHHFEERSGVVPCGTPWGQWYQTLEEVFIEVQVPPGTRAQDIQCGLQSRHVALAVGGREILKGKLFDSTIADEGTWTLEDRKMVRIVLTKTKRDAANCWTSLLESEYAADPWVQDQMQRKLTLERFQKENPGFDFSGAEISGNYTKGGPDFSNLEKDGT	not soluble
KLKIVEVPQEELFRDDDLLKSVYGILVTAHYRNSPDDLMLLGDMAFQKVIVGYSSENPVAVCQVVYEGGLTDKQIWDISNGLKNEGHLIPHRLIKYMRALDFGKLKGWRIMRIAVSPENQGKGIGSRVIEEVIKMAKGVDWIGSSFVADYSVLRFWIKNGFLPVYLSSIKNEE	not soluble
MGHHHHHHSHMSFVECPYHSPAERLVAEADEGGPSAITGMGLCFRCLLFSFSGRSGVEGGRVDLNVFGSLGLQPWIGSSRCWGGPCSSALRCGWFSSWPPPSKSAIPIGGGSRGAGRVSRWPPPHWLEAWRVSPRPL	not soluble
MGSDKIHHHHHHMQMFCYQCSQTANGTGCTEYGVCGKSPTVARLQDNLVFAIKGISAYYYHARELGYDDPEIAGFLDEALYSTLTNVNFDAQSFVEYALEAGRMNLKAMQLLKKAHIETYGEPTPVEVETGTKKGKGIIVTGHNLKALEELLKQVEGTNVYVYTHSEMLPAHGYPGLRKYKNLIGNLGKAWYDQRKLFAEYPVAILGTSNCVLIPSESYRDRMFTTSIARLPGVKHIDGYDYTEVIEKAKSLPDLEEKPGSYKLRTGFSTSVVVSLADKIKELVEAGKIKHFLVVGGCDVPFKRNEYYREFVQKLPKETVVITLACGKFRINDLDLGDIDGIPRLIDVGQCNDTIVAIEIAQALAKVFGVEVTELPLTLVLTWMEQKAVAILWTLLALGLKNIYVGPVLPAWVNEDILKVLTAEFGLKTISEP	not soluble
MSLYPGQFAKTRPDHPAFIMASTGETVSYAELEARSNRLAHLLRNHGLQRLDHYSIFMENNNRYIEACAAGERSGYYYTCVNSYLTPAELAYILTNSESRALITSKAKLDVAREALKDCPNVTLCVVVDGDGESERIVGLAEATKNLPDTPIADESLGTAMLYSSGTTGRPKGILRPLPEQPPSEPLPLFHFLNMLWKYRDGMIYLSPAPLYHSAPQAAVGLTIRDGGTVIIMEHFDPEQYLALIGKHKVTHSQLVPTMFSRMLKLPEEARKTYDLSTLEVAIHAAAPCPPQVKEQMIEWWGPIIHEYYGATEGLGFTACNSAEWLAHRGTVGKVMFGDLHILDDGMKPCPKGTPGQIWFKTATPFEYFNDPKKTQEARSEDGSMSTVGDVGYVDDDGYLHLTDRATFMIISGGVNIYPQECENLLITHPKVADAAVFGVPNEDLGEEVKAVVQPMPGVAAGADLAAELIAFCAQSLSRQKVPRSIDFMDELPRLPTGKLYKRLLRDRYWGNKNSREGHHHHHH	soluble
